Measured values taken from paper PMC11024467 (2024).

B1: IL-2Rαβγ complex (complex)
chain 1: ELCDDDPPEIPHATFKAMAYKEGTMLNCECKRGFRRIKSGSLYMLCTGNSSHSSWDNQCQCTSSATRNTTKQVTPQPEEQKERKTTEMQSPMQPVDQASLPGHCREPPPWENEATERIYHFVVGQMVYYQCVQGYRALHRGPAESVCKMTHGKTRWTQPQLICTGEMETSQFPGEEKPQASPEGRPESETSCLVTTTDFQIQTEMAATMETSIFTTEYQVAVAGCVFLLISVLLLSGLTWQRRQRKSRRTI
chain 2: AVNGTSQFTCFYNSRANISCVWSQDGALQDTSCQVHAWPDRRRWNQTCELLPVSQASWACNLILGAPDSQKLTTVDIVTLRVLCREGVRWRVMAIQDFKPFENLRLMAPISLQVVHVETHRCNISWEISQASHYFERHLEFEARTLSPGHTWEEAPLLTLKQKQEWICLETLTPDTQYEFQVRVKPLQGEFTTWSPWSQPLAFRTKPAALGKDTIPWLGHLLVGLSGAFGFIILVYLLINCRNTGPWLKKVLKCNTPDPSKFFSQLSSEHGGDVQKWLSSPFPSSSFSPGGLAPEISPLEVLERDKVTQLLLQQDKVPEPASLSSNHSLTSCFTNQGYFFFHLPDALEIEACQVYFTYDPYSEEDPDEGVAGAPTGSSPQPLQPLSGEDDAYCTFPSRDDLLLFSPSLLGGPSPPSTAPGGSGAGEERMPPSLQERVPRDWDPQPLGPPTPGVPDLVDFQPPPELVLREAGEEVPDAGPREGVSFPWSRPPGQGEFRALNARLPLNTDAYLSLQELQGQDPTHLV
chain 3: LNTTILTPNGNEDTTADFFLTTMPTDSLSVSTLPLPEVQCFVFNVEYMNCTWNSSSEPQPTNLTLHYWYKNSDNDKVQKCSHYLFSEEITSGCQLQKKEIHLYQTFVVQLQDPREPRRQATQMLKLQNLVIPWAPENLTLHKLSESQLELNWNNRFLNHCLEHLVQYRTDWDHSWTEQSVDYRHKFSLPSVDGQKRYTFRVRSRFNPLCGSAQHWSEWSHPIHWGSNTSKENPFLFALEAVVISVGSMGLIISLLCVYFWLERTMPRIPTLKNLEDLVTEYHGNFSAWSGVSKGLAESLQPDYSERLCLVSEIPPKGGALGEGPGASPCNQHSPYWAPPCYTLKPET
B2: IL-2Rβγ complex (complex)
chain 1: B1 chain 2
chain 2: B1 chain 3
B3: IL-2Rαβγ complex (complex)
chain 1: ELCDDDPPEIPHATFKAMAYKEGTMLNCECKRGFRRIKSGSLYMLCTGNSSHSSWDNQCQCTSSATRNTTKQVTPQPEEQKERKTTEMQSPMQPVDQASLPGHCREPPPWENEATERIYHFVVGQMVYYQCVQGYRALHRGPAESVCKMTHGKTRWTQPQLICTGEMETSQFPGEEKPQASPEGRPESETSCLVTTTDFQIQTEMAATMETSIFTTEYQ
chain 2: AVNGTSQFTCFYNSRANISCVWSQDGALQDTSCQVHAWPDRRRWNQTCELLPVSQASWACNLILGAPDSQKLTTVDIVTLRVLCREGVRWRVMAIQDFKPFENLRLMAPISLQVVHVETHRCNISWEISQASHYFERHLEFEARTLSPGHTWEEAPLLTLKQKQEWICLETLTPDTQYEFQVRVKPLQGEFTTWSPWSQPLAFRTKPAALGKDT
chain 3: LNTTILTPNGNEDTTADFFLTTMPTDSLSVSTLPLPEVQCFVFNVEYMNCTWNSSSEPQPTNLTLHYWYKNSDNDKVQKCSHYLFSEEITSGCQLQKKEIHLYQTFVVQLQDPREPRRQATQMLKLQNLVIPWAPENLTLHKLSESQLELNWNNRFLNHCLEHLVQYRTDWDHSWTEQSVDYRHKFSLPSVDGQKRYTFRVRSRFNPLCGSAQHWSEWSHPIHWGSNTSKENPFLFALEA
B4: IL-2Rβγ complex (complex)
chain 1: B3 chain 2
chain 2: B3 chain 3
B5: IL-2Rα (receptor)
chain: B3 chain 1
B6: IL-2Rβ (receptor)
chain: B3 chain 2

Legend:
IL-2 variant 012 = test: SPR
[1] = target: Wild type IL-2 (de-alanine-1, C58S, C125S) (UniProt P60568 21-153, de-alanine-1 | C58S | C125S); test: SPR

Kd (IL-2 variant 012) [nM] | Kd [1] [nM] | Binder
0.575 |  | B1
0.467 |  | B2
 | 0.0423 | B3
 | 0.463 | B4
 | 47.5 | B5
 | 89.1 | B6
